A short description of the series: soluble on expression in E. coli; label from the status in PepcDB or PDB records.
With “MSLKILFASSESYPFIKTGGLGDVSYALPKALRKIGIDARVIIPKYSDIPEYFRYNTHHIASFGVPVGWRSQYGGLEYYEYDGVPFYFIDNDYYFKRSGLYGYYDDGERFAYFSRGVLQAITYMQDFNPDIIQCNDWQTAIIPVLLKDHYRNYRNYNHIKTIFTIHNLKYQGVFGKSVLGELLCLNEGYYNENALKFYDGISFMKGGILFSDKLSTVSRTYAEEIKDPYYGEHLDGLLRSRSYDLWGIVNGIDYDILNPETDKDLFFNFDSSTLYNKTKNKIELQKMLNLPVSENIPMIGIVSRLVSQKGLDLISCVLEDLLQDGIQLVVLGTGDAKYENMFKYFAWKYPNKLSANIQFNNSLAQKIYGASDMFLMPSKFEPCGIGQLIALRYGSLPIVRETGGLKDTVRPFNPITGEGNGFSFTNYNAHDMLHVIRNAEYFYYNEKYNWNKLVQTAMNDDNSWSKSAEIYRNLYMSVLEGHHHHHH”, the “soluble on expression in E. coli” value is “not soluble”.

For the sequence “MSLKISVIIPIYNAENYIEKAFSSLKNQTLAQNEFEILCIDDKSTDNSLGKLKQLSKIHKNMRIINLHKNSGGPMIPRNKGIKEAKGKYIIFLDNDDYLGEEALERLFIQAEKNQSEVIFGKYVGINGRGVPQSQFKKGNRNEADILADNLVYTLAPHKMFQTAFLKTKKIYFDPNILIGEDQYFVMKAYVNAKVITVLADYDYYYVVSRGDENLSIKESKMDPREICKVVPAVVKEIEASPLHPTYKKTLIRAYIQRYFNDYITGNYNLDYKNMSERQKTFVQVMKDTIVCHLDEKMKNELPTKTRFMIDIIAENNPEKLIDVRMQMENFSKNQVVKVENGYIKGRFRKMRPQLAYDDVYDINHLNSSKVQLHSVTLQNNNYLLDISLEQSLLTRFQTALRLCLKERDGNLEIWISPLKMLSTERGIYAVDSTLFNHTCIWDLFIESEINGFKNRKRVGKDRDFEEIVSSNNTPLLIQNNSYQIKAYFTTPFSNLSFQIISEEGHHHHHH”, the “soluble on expression in E. coli” value is given as “soluble”.

Take “MSLKITWLGHAAFLLEGSMKVLIDPFLTGNPNAPVKPEEVKADYILVTHGHGDHLGDAVEIAKRNNAPIICIHELSRILSRYDVETMGMNMGGTARTGSIAVTMVPAWHSADLEDEQGNIISAGLPAGFIVSMDGVRVYHTGDTDVFLDMQLIGELHRPDVMLLPIGDYYTMGIAGAVKALELVKPKVAIPMHYNTFPLVEKDPEDFRKAVKAKGLDVEVVILKPGESYEFNKEGGSHHHHHH”: the “soluble on expression in E. coli” value is on record as “soluble”.

Take “MSLKIVIIGGVAGGMSAATRLRRLMEDAEIVVMEKGPFVSFANCGLPYYVSGEIAEREQLLVQTPEALKARFNLDVRPHHEVVAIDPIEKVITVKHETEILTEHYDKLILSPGAKPFVPPITGLAEAKNVFSLRNVPDLDQIMTALTPETKRAVVIGAGFIGLEMAENLQKRGLEVTLVEKAPHVLPPLDEEMAAFVKAELSKNNVQVITGQSAVAFEEEGQVIRLEDGQTLASDLTILSVGVQPENTLAVEAGVATGLRGGIVVDEHYQTNQPDIYAVGDAIVVKQQITQEDALISLASPANRQGRQVADVIAGLERKNQGSIGTAIVRVFDLTAASTGLSERAAKAAGLTTAVVHISGKDHAGYYPGATDLQLKLVFHPTTGEIYGAQGIGAKGVDKRIDILATAIKGQLTIFDLPELEFTYAPPFGSAKDPVNMLGYAAMNLVEGLSENVQWYELSNELANGAVLLDVRNPAERANGQFKNAVSIPLNELRERLEELDKSTEYIVSCHSGLRSYIAERMLKQAGISAKNLDGAFALYRMVKPEELENEGHHHHHH”: the “soluble on expression in E. coli” value is on record as “soluble”.

In the case of “MSLKKSFLLLPLSLVVLSACTSNFPAPISDADGNFSPSVIQSVNGSNVGGAWQPEIQKNSLPTTGNMVTPQQNFQPINQQPTMPTAPAQPAFQPSPKTVVSAPTVQTKTVTKTVADCVDGQHINIPRNPNTNAPDYSKISKGSYKGNTYKVNKGDTMFLIAYLAGIDVKELAALNNLSEPYNLSLGQVLKISNCDIKTVTTTVSVKQPAVTASTATPVKPAVTYTPGANGTQIGSDGTIIGPIKSEAGTSPSVPVATSSTQVTSSVNNANSTPINSNVVAPIASNVVWQWPTSGNIIQGFSSTDGGNKGIDISGSRGQAVKAAAAGRIVYAGNALRGYGNLIIIKHNDDFLSAYAHNDKILVADQQEVKAGQDIAKMGSSGTNTVKLHFEIRYKGKSVDPVRYLPRHEGHHHHHH”, the “soluble on expression in E. coli” value is listed as “not soluble”.

Regarding “MSLKKVKCITGMISLQGKRPTNEDTEIVKDKIKKDKIKFGLYAVFDGHGGSGTSQAAISVVEEELMKSELMKKKMYEEMMNEIFSKSDKILCNTVYDNSGCTAAVVLVIGRFLICANVGDSEVLVISEGKQYEVLSVQHKAKLPDEKKRITSLGVPVYGGRVYGSLAVSRSLGDKQYKGGRGAVISTPHVKVYEMTKKDKAFVISCDGIYETLNYDDVVDWVITGMKLNKAPTIIAENIAMDALEKGSKDNVSVIVSLLKWKEGHHHHHH”, the “soluble on expression in E. coli” value was “not soluble”.

On to “MSLKKYLGIIVDAVSRRQFKGEITVENGKILRVEEKEHDHERYILPGLVDAHVHIESSMTVPSVFARMAVAKGTVAVVSDPHEIANVMGEEGIDFMLGDSKRSPLKVFFGVPSCVPATPFESAGSVLDAEAVDRLLAREDLYYLSEMMNFPGVVLGFPDVMAKLESAKKCGKVIDGHAPGLRGADLETYIGVGISTDHESFTYEEAVEKIKLGMKILIREGSSARNFETLYSLIDEYPEAVMLCTDDSHPDTLIYEGHIDKLIRRGQEKGLDIFNLIRAAVINPVEHYGLNVGLLREGDPADFITVDDLKSFNVLSTFIDGECVYENGEGHHHHHH”, for which the “soluble on expression in E. coli” value is on record as “soluble”.

As to “MSLKLIATDLNGTLLHQDQGFNQPLLKETLSQLKQRGIRLVLASGNQYAHLKEVFREIWSTDLAVIAENGASIYLGDELVFDGSLTPQQVRLFLSATAQDEFLQNAYLILVGAQGSYTRVGAPAPLIAAAEKFYDHLQQVMSLETVTDRIKKISVSTAPEQAAALVQHLNQRFTGQLRAHDSGYGVIDVVSLHVGKLPAVQWLAQHWQIPATEIVAFGDGANDVPLLNYAGQSYAMKNAPVDIQAQAKHVTVWDNDRDGVLRTIATLLVADEGHHHHHH”, the “soluble on expression in E. coli” value is reported as “soluble”.

In the case of “MSLKLKTLALSLLAAGVLAGCSSHSSNMANTQMKSDKIIIAHRGASGYLPEHTLESKALAFAQHSDYLEQDLAMTKDGRLVVIHDHFLDGLTDVAKKFPYRHRKDGRYYVIDFTLKEIQSLEMTENFETKDGKQAQVYPNRFPLWKSHFRIHTFEDEIEFIQGLEKSTGKKVGIYPEIKAPWFHHQNGKDIATETLKVLKKYGYDKKTDMVYLQTFDFNELKRIKTELLPQMGMDLKLVQLIAYTDWKETQEKDPKGYWVNYNYDWMFKPGAMAEVVKYADGVGPGWYMLVNKEESKPDNIVYTPLVKELAQYNVEVHPYTVRKDALPEFFTDVNQMYDALLNKSGATGVFTDFPDTGVEFLKGIKEGHHHHHH”, the “soluble on expression in E. coli” value was “soluble”.

For “MSLKLVFYGAGNMAHAIFTGIVNSKVIDSNDIYLTNRSNEVALKEYAEKLGVNYSYDDEALLKAADYVFLGTKPYDFESLAERIKPFITDKNKFISIMAGLPISYIREKLEADNPIARIMPNTNAHVGHSVTGISFSSNFGPNSKDEVDELINAFGSAIEVPEDNLHQVTAITGSGPAFLYHVFEQYVTAGTRLGLEKAQVEESIRNLIIGTSKMIERSELSMEQLRKNITSKGGTTQAGLNALSQHDLESVFEDCLRAAVDRSVELSSQDEGHHHHHH”, the “soluble on expression in E. coli” value is on record as “soluble”.

For “MSLKLVKPKKFLGQHFLKDLKVAQDIADTVDTFPELPVLEVGPGMGVLTQFLVKKDRLVKVVEVDYESVAYLREAYPSLEDHIIEDDFLKMNLHRLFDGKPFVLTGNYPYNISSQIFFKMLENKDIIPCCTGMIQKEVAERIAAGPGSKTYGILSVLIQAWYKVEYLFTVSEHVFNPPPKVKSAVIRMTRNDTKEGHHHHHH”, the “soluble on expression in E. coli” value was “not soluble”.

On to “MSLKLYYCRGACSLVVRIILNDLGLNFQDEEVDLKVKKTAGGDDFFKINPKGAVPTLVLDNGDILTENQVILQYLADTTPGQKLLAAVGESKRYHTLEWLNYISTELHKSLGMFFNPTVSEEIKSKILTPLVMTRFAYTNTRLEKGSYLMGNEFSLPDAYLFVMVSWAKYFKLDLSQFEHLTKFMDLMLARSSVAKSLQQEKLEGHHHHHH”, for which the “soluble on expression in E. coli” value is on record as “soluble”.

The record behind these values is the DeepSol protein solubility set.
